{"source": "paper PMC5620058", "about": "“IL-12p35 induces expansion of IL-10 and IL-35-expressing regulatory B cells and ameliorates autoimmune disease” (Nature Communications, 2017)", "proteins": {"B1": {"name": "mouse recombinant IL-12p35 (rIL-12p35; HBM-p35-Flag-His) (natural protein, UniProt P43431 23-215, looked up)", "chain": "RVIPVSGPARCLSQSRNLLKTTDDMVKTAREKLKHYSCTAEDIDHEDITRDQTSTLKTCLPLELHKNESCLATRETSSTTRGSCLPPQKTSLMMTLCLGSIYEDLKMYQTEFQAINAALQNHNHQQIILDKGMLVAIDELMQSLNHNGETLRQKPPVGEADPYRVKMKLCILLHAFSTRVVTINRVMGYLSSA", "notes": "IL-12p35 (Il12a), mouse; cDNA amplified with the printed primers and cloned behind the honeybee melittin (HBM) secretion signal of pMIB; The same construct was obtained as a monomer (~27 kDa, FPLC fractions 29-30) and as a p35−p35 homodimer (~56-57 kDa, fractions 20-21); also called p35−p35; source: purified (Ni-NTA, Centricon filtration, Sephacryl S-200 and Superose-6 FPLC)"}}, "molecular_target": "the molecule itself", "assay": "AUC; sedimentation equilibrium, native conditions, non-reducing; peak fraction of Superose-6 further purified by Centricon filtration"}
{"protein": "B1", "values": [{"measurement": "stoichiometry N", "value": 2}]}
